# Source: article doi:10.1101/2022.03.01.482405
# Columns and labels:
# [1] = molecular target: Photosystem I trimer from Thermosynechococcus elongatus BP-1 (His10-tag on PsaF) (Thermosynechococcus elongatus BP-1) (UniProt P0A405); assay: ITC
# [2] = molecular target: Photosystem I protomer from Thermosynechococcus elongatus BP-1 (His10-tag on PsaF) (Thermosynechococcus elongatus BP-1) (UniProt P0A405); assay: cryo-EM structure
Kd [1] [µM],stoichiometry N [2],Substance
800,–,gallium-substituted ferredoxin from Thermosynechococcus elongatus BP-1 (from UniProt P0A3C9) (natural protein)
–,3,Photosystem I protomer from Thermosynechococcus elongatus BP-1 (His10-tag on PsaF) (from UniProt P0A405;P0A407;P0A415;P0A420;P0A423;P0A401;P0A427;P0A429;P0A425;Q8DGB4;P0A403) (complex)
